Test results as given in PMC5704485, “A unique cysteine-rich zinc finger domain present in a majority of class II ribonucleotide reductases mediates catalytic turnover” (The Journal of Biological Chemistry, 2017).
“And” between values parts separate entries of the source, which are not always exact repeats. Equal values may be shown once.

Key:
[1] = target: T1, NrdJdΔCRD (Stackebrandtia nassauensis, UniProt D3Q6G1); assay: effector titration of NDP reductase activity, HPLC; type: biochemical; details: half-maximal activation by allosteric effector; range printed for all effectors together; single preferred NDP substrate; AdoCbl; Tris pH 8.0, 20 mM MgCl2, 50 mM DTT, room temperature
T1 construct: gene Snas_4560; catalytic domain, residues 1-714 (codon 715 replaced by stop), C-terminal cysteine-rich domain removed; mainly monomer

[2] = target: T2, NrdJd-wt (Snas 4560), full-length class II RNR (Stackebrandtia nassauensis, UniProt D3Q6G1); assay: effector titration of NDP reductase activity, HPLC; type: biochemical; details: half-maximal activation by allosteric effector, AdoCbl
T2 construct: gene Snas_4560; monomer/dimer, tetramer/hexamer with dATP or dGTP
T2 sequence (D3Q6G1 1-946): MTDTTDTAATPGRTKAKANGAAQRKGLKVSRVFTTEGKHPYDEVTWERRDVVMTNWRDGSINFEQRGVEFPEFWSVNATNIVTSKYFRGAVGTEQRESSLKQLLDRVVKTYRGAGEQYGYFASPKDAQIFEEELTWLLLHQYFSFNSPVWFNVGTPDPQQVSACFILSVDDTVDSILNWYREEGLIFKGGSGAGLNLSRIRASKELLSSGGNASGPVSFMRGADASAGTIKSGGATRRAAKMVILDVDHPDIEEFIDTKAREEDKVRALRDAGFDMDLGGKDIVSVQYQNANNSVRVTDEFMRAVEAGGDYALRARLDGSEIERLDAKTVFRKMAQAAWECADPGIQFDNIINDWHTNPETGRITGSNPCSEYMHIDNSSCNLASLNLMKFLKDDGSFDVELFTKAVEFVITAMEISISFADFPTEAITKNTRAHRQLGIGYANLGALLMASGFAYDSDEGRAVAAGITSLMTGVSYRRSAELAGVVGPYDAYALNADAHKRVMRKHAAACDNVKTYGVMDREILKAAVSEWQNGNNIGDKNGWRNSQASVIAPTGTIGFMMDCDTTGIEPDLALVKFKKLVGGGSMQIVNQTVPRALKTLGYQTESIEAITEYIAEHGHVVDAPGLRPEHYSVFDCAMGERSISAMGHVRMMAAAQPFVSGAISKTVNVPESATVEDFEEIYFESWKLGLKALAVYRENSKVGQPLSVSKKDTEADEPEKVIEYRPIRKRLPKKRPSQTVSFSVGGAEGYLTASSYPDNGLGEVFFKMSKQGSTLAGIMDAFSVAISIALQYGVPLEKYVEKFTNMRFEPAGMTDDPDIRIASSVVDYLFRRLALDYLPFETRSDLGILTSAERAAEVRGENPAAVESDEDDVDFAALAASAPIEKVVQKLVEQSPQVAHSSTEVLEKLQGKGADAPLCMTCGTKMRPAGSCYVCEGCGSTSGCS

[3] = target: T3, C933A/C370A mixture (mutant mix) of NrdJd (Stackebrandtia nassauensis, UniProt D3Q6G1, C370A/C933A); assay: effector titration of CDP reductase activity, HPLC; type: biochemical; details: half-maximal activation by allosteric effector; equimolar mixture of two single mutants; substrate CDP; reductant TCEP; AdoCbl; standard assay Tris pH 8.0, 20 mM MgCl2, room temperature
T3 construct: gene Snas_4560; equimolar mixture of two separately purified full-length single mutants (not a double mutant)
T3 sequence (D3Q6G1 entry or part of it C370A): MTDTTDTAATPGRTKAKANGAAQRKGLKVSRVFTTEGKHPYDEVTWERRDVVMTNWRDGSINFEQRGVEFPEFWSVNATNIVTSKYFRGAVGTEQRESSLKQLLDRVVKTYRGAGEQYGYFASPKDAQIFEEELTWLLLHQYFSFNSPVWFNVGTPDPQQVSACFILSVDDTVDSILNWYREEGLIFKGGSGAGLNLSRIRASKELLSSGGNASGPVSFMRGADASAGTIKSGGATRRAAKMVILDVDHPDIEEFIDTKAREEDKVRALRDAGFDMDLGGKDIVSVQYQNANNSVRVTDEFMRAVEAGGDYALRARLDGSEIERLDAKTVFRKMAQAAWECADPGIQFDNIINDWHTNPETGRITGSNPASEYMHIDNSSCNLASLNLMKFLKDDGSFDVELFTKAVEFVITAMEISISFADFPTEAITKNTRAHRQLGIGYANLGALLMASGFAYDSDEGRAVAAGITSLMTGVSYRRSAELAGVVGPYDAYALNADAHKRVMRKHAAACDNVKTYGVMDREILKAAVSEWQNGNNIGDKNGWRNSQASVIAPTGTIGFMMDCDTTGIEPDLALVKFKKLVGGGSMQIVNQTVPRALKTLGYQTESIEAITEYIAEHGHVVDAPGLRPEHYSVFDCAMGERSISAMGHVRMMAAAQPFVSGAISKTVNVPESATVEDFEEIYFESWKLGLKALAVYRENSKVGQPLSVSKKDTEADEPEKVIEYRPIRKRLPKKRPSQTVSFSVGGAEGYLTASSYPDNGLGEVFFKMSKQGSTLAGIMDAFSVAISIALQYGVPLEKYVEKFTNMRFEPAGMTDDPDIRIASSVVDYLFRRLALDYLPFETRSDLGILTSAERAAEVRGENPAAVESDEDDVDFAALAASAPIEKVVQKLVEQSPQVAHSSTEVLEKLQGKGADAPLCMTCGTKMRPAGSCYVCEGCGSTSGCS
T3 sequence (D3Q6G1 entry or part of it C933A): as the sequence (D3Q6G1 entry or part of it C370A) above, with A370C, C933A counted along it

[4] = target: T2, NrdJd-wt (Snas 4560), full-length class II RNR; assay: GEMMA oligomerization titration; type: binding; details: effector-induced tetramer/hexamer formation; 0.075 mg/ml protein; 40 mM ammonium acetate pH 7.8, equimolar MgCl2; possible further nucleotide site
[5] = target: NrdJd-wt, the full-length version of the Stackebrandtia nassauensis class II ribonucleotide reductase (Stackebrandtia nassauensis); assay: GEMMA (gas phase electrophoretic macromolecule analysis); 0.075 mg/ml NrdJd-wt, no effector; 40 mM ammonium acetate pH 7.8, 0.005% Tween 20, 0.2 mM DTT
[6] = target: NrdJd-wt, the full-length version of the Stackebrandtia nassauensis class II ribonucleotide reductase (Stackebrandtia nassauensis); assay: GEMMA (gas phase electrophoretic macromolecule analysis); 0.075 mg/ml NrdJd-wt with dATP (100 μM, and a titration of dATP), equimolar MgCl2; 40 mM ammonium acetate pH 7.8, 0.005% Tween 20, 0.2 mM DTT
[7] = target: NrdJd-wt, the full-length version of the Stackebrandtia nassauensis class II ribonucleotide reductase (Stackebrandtia nassauensis); assay: GEMMA (gas phase electrophoretic macromolecule analysis); 0.075 mg/ml NrdJd-wt with 100 μM dTTP, equimolar MgCl2; 40 mM ammonium acetate pH 7.8, 0.005% Tween 20, 0.2 mM DTT
[8] = target: NrdJd-wt, the full-length version of the Stackebrandtia nassauensis class II ribonucleotide reductase (Stackebrandtia nassauensis); assay: GEMMA (gas phase electrophoretic macromolecule analysis); 0.075 mg/ml NrdJd-wt with dGTP (100 μM, and a titration of dGTP), equimolar MgCl2; 40 mM ammonium acetate pH 7.8, 0.005% Tween 20, 0.2 mM DTT
[9] = target: NrdJd-wt, the full-length version of the Stackebrandtia nassauensis class II ribonucleotide reductase (Stackebrandtia nassauensis); assay: SEC; analytical SEC, Superdex 200 Increase 3.2, 25 μl of 1.0 mg/ml protein, 50 mM Tris pH 7.5, 300 mM NaCl, 1 mM DTT, in the presence or absence of 100 μM effector (dATP)
[10] = target: NrdJd-wt, the full-length version of the Stackebrandtia nassauensis class II ribonucleotide reductase (Stackebrandtia nassauensis); assay: GEMMA (gas phase electrophoretic macromolecule analysis); 0.075 mg/ml NrdJd-wt with dCTP, equimolar MgCl2; 40 mM ammonium acetate pH 7.8, 0.005% Tween 20, 0.2 mM DTT
[11] = target: NrdJdΔCRD, the C-terminally deleted version of the S. nassauensis class II ribonucleotide reductase (Stackebrandtia nassauensis); assay: GEMMA (gas phase electrophoretic macromolecule analysis); 0.025 mg/ml NrdJdΔCRD, with or without 100 μM effector (dATP); 40 mM ammonium acetate pH 7.8, 0.005% Tween 20, 0.2 mM DTT
[12] = target: S. nassauensis NrdJd C933A, C-terminal (CRD) mutant (Stackebrandtia nassauensis)
[13] = single preferred NDP substrate (not given), Tris pH 8.0, 20 mM MgCl2, 50 mM DTT (standard conditions), room temperature, upper limit sta

Compound: Nc1ncnc2c1ncn2[C@@H]1O[C@H](COP(=O)(O)OP(=O)(O)OP(=O)(O)O)[C@@H](O)[C@H]1O [ATP]
- KL [1]: the affinity of the C-terminal truncated enzyme toward each tested effector is reduced
- EC50 [2, 13]: < 4 µM

Compound: Nc1ncnc2c1ncn2[C@H]1C[C@H](O)[C@@H](COP(=O)(O)OP(=O)(O)OP(=O)(O)O)O1 [dATP]
- EC50 [3]: 15 ± 4.5 µM
- EC50 ([2]; substrate CDP, reductant TCEP, standard assay Tris pH 8.0, 20 mM MgCl2, room temperature): < 4 µM
- concentration with half the enzyme as tetramer or hexamer [4]: ~ 17 μmol liter^−1

Compound: Nc1ccn([C@H]2C[C@H](O)[C@@H](COP(=O)(O)OP(=O)(O)OP(=O)(O)O)O2)c(=O)n1 [dCTP]
- EC50 [2, 13]: < 4 µM

Compound: Nc1nc2c(ncn2[C@H]2C[C@H](O)[C@@H](COP(=O)(O)OP(=O)(O)OP(=O)(O)O)O2)c(=O)[nH]1 [dGTP]
- EC50 [2, 13]: < 4 µM

Compound: Cc1cn([C@H]2C[C@H](O)[C@@H](COP(=O)(O)OP(=O)(O)OP(=O)(O)O)O2)c(=O)[nH]c1=O [dTTP]
- EC50 [2, 13]: < 4 µM

Compound: NrdJd-wt, the full-length version of the Stackebrandtia nassauensis class II ribonucleotide reductase (enzyme)
- stoichiometry N [5]: 2
- stoichiometry N [6]: 4 and 6
- stoichiometry N [7]: 2
- stoichiometry N [8]: 4 and 6
- stoichiometry N [9]: 4
- stoichiometry N [10]: 2

Compound: NrdJdΔCRD, the C-terminally deleted version of the S. nassauensis class II ribonucleotide reductase (domain or fragment)
- stoichiometry N [11]: 2

Compound: S. nassauensis NrdJd C370A, active site cysteine-deficient mutant (enzyme)
- RNR activity of the C933A/C370A mixture, substrate/effector GDP/dTTP (dimers only), TCEP as reductant, dTTP titrated 4 to 1000 μM, relative to NrdJd-wt (3 to 7%) (% of NrdJd-wt) [12]: 3 to 7
- Vmax of RNR activity of the C933A/C370A mixture, substrate/effector CDP/dATP (tetramers and hexamers), TCEP as reductant, relative to NrdJd-wt (% of the wild type) [12]: 30
